Data from patent publication US20250066745A1, “MUTANTS AND USE THEREOF” (BGI SHENZHEN, priority 2021, published 2025).
Where a chain is given by its changes, count along the chain named. Values joined by “and” are separate entries in the source; they are usually repeats but may differ in a detail not shown here. Equal entries are not always repeated.

How the values were obtained:
[1] = Luminescence activity assay of purified Gaussia luciferase mutants on coelenterazine; type: biochemical; settings: for Measured luminescence intensity (CTZ): purified luciferase 1 μg/mL, 10 μL, 90 μL substrate coelenterazine 100 μM; for Ratio of luminescence intensities of advantageous mutant to wild-type Gaussia luciferase without signal peptide (CTZ): substrate coelenterazine 100 μM, vs no sp Gluc average; for measured value, CTZ: purified combinatorial mutant, substrate coelenterazine (CTZ)
Summary of the method: (§1)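 Readout: luminescence intensity, as ratio to signal-peptide-free wild-type enzyme. Enzyme 1 μg/mL, substrate 100 μM stock, 10 μL + 90 μL; buffer 50 mM Tris-HCl pH 8.0, 100 mM NaCl, 0.1% Tween-20.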

[2] = Luminescence activity assay of purified Gaussia luciferase mutants on fluoro-coelenterazine; type: biochemical; settings: for Measured luminescence intensity (f-CTZ): purified luciferase 1 μg/mL, 10 μL, 90 μL substrate fluoro-coelenterazine 100 μM; for Ratio of luminescence intensities of advantageous mutant to wild-type Gaussia luciferase without signal peptide (f-CTZ): substrate fluoro-coelenterazine 100 μM, vs no sp Gluc average; for measured value, f-CTZ: purified combinatorial mutant, substrate fluoro-coelenterazine (f-CTZ)
Summary of the method: as §1

[3] = Luminescence activity assay of purified Gaussia luciferase mutants on coelenterazine derivative ZS2; type: biochemical; settings: for Measured luminescence intensity (ZS2): purified luciferase 1 μg/mL, 10 μL, 90 μL substrate ZS2 100 μM; for Ratio of luminescence intensities of advantageous mutant to wild-type Gaussia luciferase without signal peptide (ZS2): substrate ZS2 100 μM, vs no sp Gluc average; for measured value, ZS-2: purified combinatorial mutant, substrate coelenterazine derivative ZS2; for ratios of catalytic activities on ZS2 relative to ZS26: substrate specificity, FIG. 10, in words
Summary of the method: as §1

[4] = Activity assay of Gaussia luciferase at bacteria solution level (substrate CTZ); type: cell-based; settings: OrigamiB (DE3) competent cells; 100 μL induced bacteria solution; CTZ final 100 μM; FIG. 4
Description: The expression plasmids pET28a-Gluc wt and pCold-no sp Glue obtained in Example 1 were individually transformed into BL21 (DE3) competent cells or OrigamiB (DE3) chemically competent cells (WEIDI BIO, EC1020S) and applied to plate medium. Then single colonies were picked from the plate for culture overnight at 37° C. The cultured clones were diluted at the ratio of 1:100 the next day, and transferred into 3 mL of fresh LB medium with ampicillin at 100 μg/mL, shaked at 37° C., 200 rpm until OD600≈0.5-0.6, followed by cooling on ice for 1 hour. IPTG was added at a final concentration of 1 mM as inducer for induction overnight at 16° C.
The induced bacteria solution, taken for 100 μL, was moved into a black 96-well plate, then added with 100 μL of a substrate CTZ (purchased from BIOLAB) at a final concentration of 100 μM. The luminescence intensity was read with a self-luminescence module of a microplate reader. […] Accordingly, the subsequent experiments were conducted with the Gaussia luciferase without the signal peptide.

[5] = Substrate specificity test of combinatorial mutants: activity on coelenterazine derivative ZS26; type: biochemical; settings: for measured value, ZS-26: purified combinatorial mutant, substrate coelenterazine derivative ZS26; for ratio of catalytic activities, ZS2/ZS26 / ratio of catalytic activities, CTZ/ZS26 / ratio of catalytic activities, f-CTZ/ZS26: substrate specificity; for ratio of catalytic activities, ZS2/ZS26: ZS2 relative to ZS26; for ratio of catalytic activities, CTZ/ZS26: coelenterazine relative to ZS26; for ratio of catalytic activities, f-CTZ/ZS26: fluoro-coelenterazine relative to ZS26
Description: In this Example, the protein concentration was determined with a BCA quantitative kit (Thermo Scientific™ Pierce™ BCA Protein Assay Kit) accurately. The purified luciferase obtained in Example 5 was diluted with diluent (50 mM Tris-HCl, pH 8.0, 100 mM NaCl, 0.1% (v/v) Tween-20) to 1 μg/mL. The diluted luciferase, taken for 10 μL, was moved into a black 96-well plate, then added with 90 μL of the substrates coelenterazine, fluoro-coelenterazine or coelenterazine derivative ZS2 (purchased from Biolab) which was diluted into 100 μM with the same diluent, and the luminescence intensity of the plate was read with a self-luminescence module of a microplate reader. The mutation site of the mutant, the measured luminescence intensity, the ratio of luminescence intensities of the advantageous mutants to the wild-type Gaussia luciferase without the signal peptide having the sequence shown in SEQ ID NO: 3 are shown in Table 15. The results of catalytic activity assay of the advantageous mutants relative to the wild-type Gaussia luciferase without the signal peptide having the sequence shown in SEQ ID NO: 3 on substrate coelenterazine are shown in FIG. 6. […] The results of catalytic activity assay of the advantageous mutants relative to the wild-type Gaussia luciferase without the signal peptide having the sequence shown in SEQ ID NO: 3 on substrate fluoro-coelenterazine are shown in FIG. 7.
The new mutant library constructed in Example 7 was screened and tested for substrate specificity. Expression and purification schemes were the same as that in Example 5, and the activity assay scheme was the same as that in Example 6. The respective catalytic activities of combinatorial mutants on coelenterazine, fluoro-coelenterazine or coelenterazine derivative ZS2, and coelenterazine derivative ZS26 (purchased from BIOLAB) were assayed, and comparisons among the substrate specificities of the combinatorial mutants were based on the ratios of catalytic activities on two corresponding substrates.

B1: no sp Gluc: wild type Gaussia luciferase without signal peptide, having a sequence shown in SEQ ID NO: 3 (protein)
chain: KPTENNEDFNIVAVASNFATTDLDADRGKLPGKKLPLEVLKEMEANARKAGCTRGCLICLSHIKCTPKMKKFIPGRCHTYEGDKESAQGGIGEAIVDIPEIPGFKDLEPMEQFIAQVDLCVDCTTGCLKGLANVQCSDLLKKWLPQRCATFASKIQGQVDKIKGAGGD
[1]
  Measured luminescence intensity (CTZ): 253597 and 276603 and 266322
  Ratio of luminescence intensities of advantageous mutant to wild-type Gaussia luciferase without signal peptide (CTZ): 0.96 and 1.04 and 1
[1]; listed as no sp Gluc average
  Measured luminescence intensity (CTZ): 265507.3
  Ratio of luminescence intensities of advantageous mutant to wild-type Gaussia luciferase without signal peptide (CTZ): 1
[2]
  Measured luminescence intensity (f-CTZ): 5662 and 7198 and 6191
  Ratio of luminescence intensities of advantageous mutant to wild-type Gaussia luciferase without signal peptide (f-CTZ): 0.89 and 1.13 and 0.97
[2]; listed as no sp Gluc average
  Measured luminescence intensity (f-CTZ): 6350.333
  Ratio of luminescence intensities of advantageous mutant to wild-type Gaussia luciferase without signal peptide (f-CTZ): 1
[3]
  Measured luminescence intensity (ZS2): 18344 and 20707 and 22415
  Ratio of luminescence intensities of advantageous mutant to wild-type Gaussia luciferase without signal peptide (ZS2): 0.9 and 1.01 and 1.09
[3]; listed as no sp Gluc average
  Measured luminescence intensity (ZS2): 20488.67
  Ratio of luminescence intensities of advantageous mutant to wild-type Gaussia luciferase without signal peptide (ZS2): 1
[4]
  luminescence value at bacteria solution level: highest luminescence value

B2: mutant E1-G12: Gaussia luciferase combinatorial mutant encoded by SEQ ID NO: 42 (protein)
chain: MKPTENNEDLNILDIAKNFIETDLDADRGKLPGKKLPLEVLKEMEANARIAGCTRGCLICLSKIKCTLKMKKFIPGRCHTYEGDKSTGQGGIGPAIVDIPEIPGFKDMEPMEQFIAQVDLCEDCTTGCLKGLANVQCSDLLKKWLPQRCATFASKIQGQVDKIKGAGGD
[1]
  measured value, CTZ: 689624
[2]
  measured value, f-CTZ: 94900
[3]
  measured value, ZS-2: 401271
  ratios of catalytic activities on ZS2 relative to ZS26: significantly improved
[5]
  measured value, ZS-26: 31521
  ratio of catalytic activities, ZS2/ZS26: 12.73
  ratio of catalytic activities, CTZ/ZS26: 21.87
  ratio of catalytic activities, f-CTZ/ZS26: 3.01

B3: mutant 4-C12: Gaussia luciferase combinatorial mutant encoded by SEQ ID NO: 43 (protein)
chain: B2 chain with L10F, L13V, D14A, I15V, K17S, I20A, E21T, I50K, L68P
[1]
  measured value, CTZ: 1675889
[2]
  measured value, f-CTZ: 167522
[3]
  measured value, ZS-2: 773694
  ratios of catalytic activities on ZS2 relative to ZS26: significantly improved
[5]
  measured value, ZS-26: 64057
  ratio of catalytic activities, ZS2/ZS26: 12.08
  ratio of catalytic activities, CTZ/ZS26: 26.16
  ratio of catalytic activities, f-CTZ/ZS26: 2.62
